In patent publication US20250152705A1, “COMBINATION THERAPY COMPRISING AN ANTI-IL-23 ANTIBODY AND A CORTICOSTEROID FOR TREATING PSORIASIS” (priority 2022, published 2025):

Tests used:
[1] = tested on: moderate to severe plaque psoriasis; experiment: Prospective, open-label study of effectiveness of tildrakizumab plus topical halcinonide ointment; type: in vivo, human; conditions: for improvement of mean DLQI from baseline: patients with BSA≤3% at week 16, no halcinonide ointment
[2] = tested on: patients with moderate to severe plaque psoriasis; experiment: Safety outcomes (AEs, SAEs) in the open-label study; type: in vivo, human; conditions: through week 24
Method: This was a single center, prospective, open-label study to evaluate the effectiveness and safety of tildrakizumab (ILUMYA® [tildrakizumab-asmn] in combination with halcinonide ointment (HALOG® ointment [Halcinonide Ointment, USP, 0.1%) for treating moderate to severe plaque psoriasis. The study protocol was approved by an institutional review board and the study was conducted in accordance with ethical guidelines. Written informed consent was obtained by all patients before initiating treatment.
All enrolled patients received tildrakizumab (100 mg) by subcutaneous injection at weeks 0, 4, and 16. Patients with BSA>3% at week 16 applied halcinonide ointment twice daily for 4 weeks and then continued without halcinonide for an additional 4 weeks of follow up. Patients with BSA≤3% at week 16 were also followed up to week 24. All patients were evaluated for safety and efficacy at weeks 4, 8, 16, 20 and 24.
The primary endpoint of the study was the proportion of patients with BSA≤3% at week 16. […] Improvements in PGA, the composite PGA×BSA measure, and DLQI were also evaluated as secondary endpoints. […]
A cohort of approximately 25 participants was planned for enrollment in the study. […] AEs and SAEs were summarized descriptively by frequency and severity, and their causal relationship to treatment was assessed.

[3] = patients with BSA>3% at week 16, week 16
[4] = patients with BSA≤3% at week 16, no halcinonide, week 16

B1: tildrakizumab (antibody, chains of the INN, looked up, V domains shown)
VH: QVQLVQSGAEVKKPGASVKVSCKASGYIFITYWMTWVRQAPGQGLEWMGQIFPASGSADYNEKFEGRVTMTTDTSTSTAYMELRSLRSDDTAVYYCARGGGGFAYWGQGTLVTVSS
VL: DIQMTQSPSSLSASVGDRVTITCRTSENIYSYLAWYQQKPGKAPKLLIYNAKTLAEGVPSRFSGSGSGTDFTLTISSLQPEDFATYYCQHHYGIPFTFGQGTKVEIK
decrease of mean DLQI from baseline ([1]; all patients, week 16): 68%
proportion of patients achieving PASI 75 ([1]; all patients, week 16): 60.9%
proportion of patients achieving PASI 90 ([1]; all patients, week 16): 17.4%
proportion of patients achieving PASI 100 (complete resolution) ([1]; all patients, week 16): 4.3%
proportion of patients with BSA≤1% ([1]; all patients, week 16): 21.7%
reduction in mean BSA involvement from baseline ([1]; all patients, week 16): 74%
proportion of patients reporting a DLQI score of 0 or 1 ([1]; all patients, week 16 (baseline 4.0%)): 39.2%
mean BSA involvement ([1]; all patients, week 16 (baseline 19.1%)): 5.0%
proportion of patients with BSA≤3% ([1]; all patients, week 16, tildrakizumab 100 mg sc at weeks 0, 4, 16): 52.2%
BSA≤3% response at weeks 20 and 24 ([1]; most patients with BSA≤3% at week 16 (no halcinonide use) who completed the study): maintained a BSA≤3%
reduction from baseline in mean BSA [1, 3]: 55%
reduction from baseline in mean PGA [1, 3]: 29%
reduction from baseline in mean PGA×BSA [1, 3]: 64%
reduction in mean DLQI from baseline [1, 3]: 50%
improvement of mean DLQI from baseline ([1]; week 16): 84%
improvement of mean DLQI from baseline ([1]; weeks 20 and 24): remained at similar levels
BSA, PGA and PGA×BSA responses ([1]; patients with BSA≤3% at week 16, no halcinonide, through week 24): maintained
reduction of mean BSA from baseline [1, 4]: 89%
reduction of mean PGA from baseline [1, 4]: 60%
reduction of mean PGA×BSA from baseline [1, 4]: 95%
number of patients with BSA>3% ([1]; week 16): 11 patients
number of patients with BSA≤3% ([1]; week 16): 12 patients
serious adverse events (SAEs) [2]: no SAEs
tolerability [2]: well tolerated
